The values that follow come from patent US20040132662A1.

The test addresses Human endothelial cells (ECV304). Nature of the test: inhibition of endothelial cell adhesion to pepsinized collagen type IV by soluble monomer.

“recombinant human type IV collagen NCl (α1) monomer (from UniProt P02462)” yielded a percent inhibition of cell adhesion of 50%. The value for “recombinant type IV collagen NCl (α2) monomer (from UniProt P08572)” was 50%.
